Test results: article PMC2924314, “Peptides derived from the HIV-1 integrase promote HIV-1 infection and multi-integration of viral cDNA in LEDGF/p75-knockdown cells” (Virology Journal, 2010)

Target: INS (IN derived-integrase stimulatory peptide) (HIV-1)
Assay: ELISA

“Lens Epithelium Derived Growth Factor p75 (LEDGF/p75), histidine-tagged recombinant, O75475 1-530 (natural protein; other documents disagree on this pair)” was tested, and the Kd was 2.2 µM.
